In PMC6308003, “Nitric Oxide Production from Nitrite Reduction and Hydroxylamine Oxidation by Copper-containing Dissimilatory Nitrite Reductase (NirK) from the Aerobic Ammonia-oxidizing Archaeon, Nitrososphaera viennensis” (Microbes and Environments, 2018):

Assays:
[1] = substrate: NO; test: colorimetric NH2OH consumption; type: biochemical, Nitrososphaera viennensis; conditions: aerobic, dissolved O2 as oxidant, pH 7.5, 30°C
Source text: colorimetric NH2OH consumption on Ns. viennensis NirK

purified protein = substrate: O=NO; test: purified protein; type: biochemical, Nitrososphaera viennensis; conditions: anoxic, 0.5 mM benzyl viologen, 0.24 mM dithionite, 20 mM phosphate pH 6.5, 25°C, labelled compound

B1: Ns. viennensis NirK (Nitrososphaera viennensis EN76) (protein)
chain: APTGVTRHYTLIANEMEVQVAPDNALHPGGIKYNAMVFNGTIPGPVMASNAGDTVEITLKNEGKQIHSIDFHAAIGPSQVLSGNIAAGESKTWTFNTPNSGAFMYHCGADALNGVWEHIANGMYGAFVVHPTNEAPAKEFYVAFGEIYNSADGGLFVGANGTGSFDIMKFATEQPDLILTNGMAHRYVPAIGQSVKLDLNANATVFQVKPGELTRWYILAPGPNEGVSFHFISGQIDVRDGSFKTRNMAPVRNEETWWIPVGSASVIESVFPEEGLYVGVDHNMAHVLRGGAFAVLATNNSTADDVPPEAWVPSKAWLNEHAEMGGSMMGGSAGNNATSGGNTTSG
notes: signal peptide Met1-Ala24 removed, 6xHis tag (pCold I), E. coli BL21(DE3), Cu-reconstituted
B1 gave a Km [1] of 97 µM, a kcat [1] of 0.039 s⁻¹ and a Km (purified protein) of 287 µM. It also gave a kcat (purified protein) of 3.1 s⁻¹.
